Experimental data: paper doi:10.1101/2021.02.28.433298
Like-named read-outs stand apart in the source and are kept apart here.

Columns and labels:
[1] = biological target: T1, CytR DBD (Escherichia coli, UniProt P0ACN7 1-67); assay: fluorescence anisotropy
T1 sequence: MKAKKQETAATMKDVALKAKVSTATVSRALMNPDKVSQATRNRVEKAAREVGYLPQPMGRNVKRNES

[2] = biological target: T1, CytR DBD; assay: fluorescence anisotropy; remark: listed apart in the source
[3] = biological target: T1, CytR DBD; assay: fluorescence anisotropy; remark: listed apart in the source
[4] = biological target: T1, CytR DBD; assay: NMR

B1: udp left half-site (dsDNA)
DNA 1: ATTTATGCAACGCA
DNA 2: TGCGTTGCATAAAT
Kd [1]: 9.6 ± 1.8 µM

B2: nonspecific 30 bp (dsDNA)
DNA 1: GTACAGAACATGTCTAAGCATGCTGGGGAC
DNA 2: GTCCCCAGCATGCTTAGACATGTTCTGTAC
Kd [2]: 1.81 µM

B3: nonspecific 14 bp (dsDNA)
DNA 1: AGCATGCTGGGGAC
DNA 2: GTCCCCAGCATGCT
Kd [3]: 5.7 µM

B4: udp full-site operator (CytO) (dsDNA)
DNA 1: GTAAATTTATGCAACGCATTTGCGTCATGGTG
DNA 2: CACCATGACGCAAATGCGTTGCATAAATTTAC
binding result [4]: binds
